Source: patent publication US20210107989A1, “METHODS FOR TREATING CD73HI TUMORS” (CORVUS PHARMACEUTICALS, INC., priority 2017, published 2021)

Biological target: T1, CD73 on cells (MDA-MB-231 cells; human PBMC) (human, UniProt P21589 27-549)
T1 sequence (looked up): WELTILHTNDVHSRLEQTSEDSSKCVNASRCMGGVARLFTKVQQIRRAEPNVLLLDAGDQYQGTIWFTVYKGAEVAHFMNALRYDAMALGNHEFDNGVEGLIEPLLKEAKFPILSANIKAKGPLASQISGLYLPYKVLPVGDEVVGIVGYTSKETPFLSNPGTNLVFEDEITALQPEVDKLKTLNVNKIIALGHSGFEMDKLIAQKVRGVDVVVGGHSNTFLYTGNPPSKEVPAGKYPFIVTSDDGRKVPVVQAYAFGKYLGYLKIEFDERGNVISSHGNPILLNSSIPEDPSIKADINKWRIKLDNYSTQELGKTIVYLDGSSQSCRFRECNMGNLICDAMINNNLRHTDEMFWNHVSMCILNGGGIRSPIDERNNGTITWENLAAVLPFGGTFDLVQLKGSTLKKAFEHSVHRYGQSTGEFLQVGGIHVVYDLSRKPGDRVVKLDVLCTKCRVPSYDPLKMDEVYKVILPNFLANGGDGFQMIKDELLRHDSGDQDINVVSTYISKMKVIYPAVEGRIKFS
Assay: cell-based or functional assay

B1: CPX-006 (antibody, human IgG1, kappa, N297Q, V domains shown)
VH: QVQLVQSGAEVEKPGASVKVSCKASGYTFTSYWITWVRQAPGQGLEWMGDIYPGSGNTNYNEKFKTRVTITADKSTSTAYMELSSLRSEDTAVYYCAKEGGLTTEDYALDYWGQGTLVTVSS
VL: EIVLTQSPATLSLSPGERATLSCRASKNVSTSGYSYMHWYQQKPGQAPRLLIYLASNLESGIPPRFSGSGYGTDFTLTINNIESEDAAYYFCQHSRELPFTFGQGTKVEIKR
With B1 the “EC50, T cell proliferation (human PBMC with AMP)” value was 189 nM and the “EC50, interferon gamma production (human PBMC with AMP)” value was 137 nM.
